From patent publication WO2013041865A1

Assays:
[1] = target: … HLA-A*01 complex (MAGE-3 peptide, soluble biotinylated pHLA); assay: SPR (BIAcore 3000); biotinylated pHLA on streptavidin chip, soluble TCR injected, 25 C
[2] = target: … HLA-A*01 complex (MAGE-3 peptide, soluble biotinylated pHLA); assay: SPR (BIAcore) method of Example 3

T½ (binding half-life) [1]: 3 s
koff [2]: 0.2 s⁻¹
B1: reference MAGE-3 TCR (disulfide linked soluble heterodimeric form) (TCR, V domains shown)
V domain 1: KQEVTQIPAALSVPEGENLVLNCSFTDSAIYNLQWFRQDPGKGLTSLLLIQSSQREQTSGRLNASLDKSSGRSTLYIAASQPGDSATYLCAVRPGGAGSYQLTFGKGTKLSVIP
V domain 2: KAGVTQTPRYLIKTRGQQVTLSCSPISGHRSVSWYQQTPGQGLQFLFEYFSETQRNKGNFPGRFSGRQFSNSRSEMNVSTLELGDSALYLCASSPNMADEQYFGPGTRLTVTE
